Assay results published in the Immune Epitope Database (IEDB).

Columns and labels:
[1] = molecular target: HLA-B*40:01; test: IEDB peptide-MHC binding, purified MHC/direct/fluorescence; filed as Kd, often an IC50 or EC50 that approximates it; ≥ and ≤ were set here for values at or beyond the usual limits of such assays; conditions: source organism: Mycobacterium tuberculosis
[2] = molecular target: HLA-A*32:01; test: IEDB peptide-MHC binding, purified MHC/competitive/radioactivity; filed as Kd, often an IC50 or EC50 that approximates it; ≥ and ≤ were set here for values at or beyond the usual limits of such assays
[3] = molecular target: HLA-B*58:01; test: IEDB peptide-MHC binding, purified MHC/direct/fluorescence; filed as Kd, often an IC50 or EC50 that approximates it; ≥ and ≤ were set here for values at or beyond the usual limits of such assays; conditions: source organism: Mycobacterium tuberculosis variant bovis BCG str. Pasteur 1173P2
[4] = molecular target: HLA-B*39:01; test: IEDB peptide-MHC binding, purified MHC/competitive/fluorescence; filed as Kd, often an IC50 or EC50 that approximates it; ≥ and ≤ were set here for values at or beyond the usual limits of such assays; conditions: source organism: Escherichia coli
[5] = molecular target: HLA-A*30:02; test: IEDB peptide-MHC binding, purified MHC/competitive/radioactivity; filed as Kd, often an IC50 or EC50 that approximates it; ≥ and ≤ were set here for values at or beyond the usual limits of such assays
[6] = molecular target: HLA-A*30:01; test: as above
[7] = molecular target: HLA-A*01:01; test: as above
[8] = molecular target: HLA-A*26:01; test: as above
[9] = molecular target: HLA-A*29:02; test: as above
[10] = molecular target: HLA-A*31:01; test: IEDB peptide-MHC binding, purified MHC/direct/fluorescence; filed as Kd, often an IC50 or EC50 that approximates it; ≥ and ≤ were set here for values at or beyond the usual limits of such assays
[11] = molecular target: HLA-A*33:01; test: IEDB peptide-MHC binding, purified MHC/competitive/radioactivity; filed as Kd, often an IC50 or EC50 that approximates it; ≥ and ≤ were set here for values at or beyond the usual limits of such assays; conditions: source organism: SARS coronavirus Tor2
[12] = molecular target: HLA-A*68:01; test: as above; conditions: source organism: SARS coronavirus Tor2
[13] = molecular target: HLA-B*44:03; test: as above
[14] = molecular target: HLA-A*24:02; test: as above
[15] = molecular target: HLA-A*23:01; test: as above
[16] = molecular target: HLA-B*15:01; test: IEDB peptide-MHC binding, purified MHC/direct/fluorescence; filed as Kd, often an IC50 or EC50 that approximates it; ≥ and ≤ were set here for values at or beyond the usual limits of such assays
[17] = molecular target: HLA-A*03:01; test: as above
[18] = molecular target: HLA-B*27:05; test: as above
[19] = molecular target: HLA-A*11:01; test: as above
[20] = molecular target: HLA-A*26:01; test: as above; conditions: source organism: SARS-CoV1
[21] = molecular target: HLA-A*02:02; test: IEDB peptide-MHC binding, purified MHC/competitive/radioactivity; filed as Kd, often an IC50 or EC50 that approximates it; ≥ and ≤ were set here for values at or beyond the usual limits of such assays; conditions: source organism: SARS coronavirus Tor2
[22] = molecular target: HLA-A*02:06; test: as above; conditions: source organism: SARS coronavirus Tor2
[23] = molecular target: HLA-A*02:03; test: as above; conditions: source organism: SARS coronavirus Tor2
[24] = molecular target: HLA-A*02:01; test: IEDB peptide-MHC binding, purified MHC/competitive/fluorescence; filed as Kd, often an IC50 or EC50 that approximates it; ≥ and ≤ were set here for values at or beyond the usual limits of such assays; conditions: source organism: Vaccinia virus Tian Tan
[25] = source organism: Mammarenavirus brazilense
[26] = source organism: Dengue virus 2 Jamaica/1409/1983
[27] = source organism: Dengue virus 1 Brazil/97-11/1997
[28] = source organism: Mammarenavirus juninense
[29] = source organism: Vaccinia virus WR
[30] = source organism: Mammarenavirus whitewaterense
[31] = source organism: SARS coronavirus Tor2
[32] = source organism: Xanthobacter autotrophicus
[33] = source organism: Mammarenavirus machupoense

## LEEIGILLL
[1]
  Kd: 0.011 µM

## RLENVMWKQI
[2]; source organism: Dengue virus 4 Dominica/814669/1981
  Kd: 1.84 µM

## AAAAPYAGW
[3]
  Kd: 0.0271 µM

## ENARLRALL
[4]
  Kd: 0.825 µM

## GSLLHGLWPY
[5]; [25]
  Kd: 0.0404 µM
[6]; [25]
  Kd: 0.102 µM
[2]; [25]
  Kd: 1.11 µM
[7]; [25]
  Kd: 0.496 µM
[8]; [25]
  Kd: ≥ 27.3 µM
[9]; [25]
  Kd: 0.401 µM

## QLFKPLTKK
[10]; source organism: SARS-CoV1
  Kd: 0.981 µM
[11]
  Kd: ≥ 77.7 µM
[12]
  Kd: 16.8 µM

## QWFLDLPLPW
[13]; [26]
  Kd: 2.78 µM
[14]; [26]
  Kd: 0.115 µM
[15]; [26]
  Kd: 0.0117 µM

## RETACLGKSY
[13]; [27]
  Kd: 0.0703 µM

## TLAAAANSY
[16]; source organism: Mycobacterium tuberculosis C
  Kd: 0.571 µM

## LCLSGDGWPY
[5]; [28]
  Kd: 1.46 µM
[6]; [28]
  Kd: ≥ 55.6 µM
[2]; [28]
  Kd: 16.9 µM
[7]; [28]
  Kd: 1.03 µM
[8]; [28]
  Kd: ≥ 69.7 µM
[14]; [28]
  Kd: ≥ 70.3 µM
[9]; [28]
  Kd: 0.148 µM
[15]; [28]
  Kd: ≥ 70 µM

## SIYGFGVTF
[2]; [29]
  Kd: 0.000113 µM

## DHHFTPQII
[5]; [30]
  Kd: ≥ 50.8 µM
[7]; [30]
  Kd: 0.0615 µM
[8]; [30]
  Kd: ≥ 77.9 µM
[14]; [30]
  Kd: ≥ 43.9 µM
[9]; [30]
  Kd: 2.97 µM
[15]; [30]
  Kd: 11.2 µM

## LFSGVSWVMK
[2]; source organism: Dengue virus 3 Martinique/1243/1999
  Kd: 10.1 µM

## RMYIFFASF
[5]; [31]
  Kd: 1.24 µM
[7]; [31]
  Kd: ≥ 20.9 µM
[8]; [31]
  Kd: 7.04 µM
[14]; [31]
  Kd: 0.106 µM
[9]; [31]
  Kd: 2.1 µM
[15]; [31]
  Kd: 0.0753 µM

## MSFLEKDAPY
[5]; [31]
  Kd: 0.00307 µM
[7]; [31]
  Kd: 0.0644 µM
[8]; [31]
  Kd: 0.262 µM
[14]; [31]
  Kd: ≥ 70.3 µM
[9]; [31]
  Kd: 0.224 µM
[15]; [31]
  Kd: ≥ 70 µM

## ARLFGIRAK
[17]; source organism: Homo sapiens
  Kd: 1.24 µM
[18]; source organism: Homo sapiens
  Kd: 1.04 µM
[10]; source organism: Homo sapiens
  Kd: 2.94 µM
[19]; source organism: Homo sapiens
  Kd: 4.24 µM

## MTMKMMVHI
[2]; [29]
  Kd: 0.00475 µM

## NSGPDDQIGY
[5]; [31]
  Kd: 6.79 µM
[7]; [31]
  Kd: 1.01 µM
[8]; [31]
  Kd: 8.42 µM
[14]; [31]
  Kd: ≥ 33.7 µM
[9]; [31]
  Kd: 7.38 µM
[15]; [31]
  Kd: ≥ 70 µM

## TVIFQTVVI
[2]; [29]
  Kd: 0.569 µM

## IILVIIVVI
[2]; [29]
  Kd: 0.415 µM

## TEAKMLLDNI
[13]; [27]
  Kd: 0.617 µM

## SSKNQTWQIE
[2]; source organism: Dengue virus 4 Philippines/H241/1956
  Kd: ≥ 31.6 µM

## GVWTRDGNR
[17]; [32]
  Kd: ≥ 20 µM
[10]; [32]
  Kd: 0.059 µM

## TLMNVITLV
[18]; source organism: SARS-CoV1
  Kd: 10.1 µM
[19]; source organism: SARS-CoV1
  Kd: ≥ 26.9 µM
[16]; source organism: SARS-CoV1
  Kd: 6.12 µM
[20]
  Kd: 1.12 µM
[21]
  Kd: 0.00034 µM
[22]
  Kd: 0.000697 µM
[23]
  Kd: 0.000251 µM

## ILNDEQLNL
[24]
  Kd: 0.0007 µM

## LCMLNNSFYY
[5]; [33]
  Kd: 0.0117 µM
[7]; [33]
  Kd: 0.612 µM
[8]; [33]
  Kd: ≥ 69.7 µM
[14]; [33]
  Kd: ≥ 47.8 µM
[9]; [33]
  Kd: 0.00543 µM
[15]; [33]
  Kd: ≥ 29.3 µM

## SEIPNLDIIG
[13]; [26]
  Kd: 1.09 µM
